# B1: Bcl-2 homologous antagonist/killer (Homo sapiens), Q16611 (parent)
# chain: MASGQGPGPPRQECGEPALPSASEEQVAQDTEEVFRSYVFYRHQQEQEAEGVAAPADPEMVTLPLQPSSTMGQVGRQLAIIGDDINRRYDSEFQTMLQHLQPTAENAYEYFTKIATSLFESGINWGRVVALLGFGYRLALHVYQHGLTGFLGQVTRFVVDFMLHHCIARWIAQRGGWVAALNLGNGPILNVLVVLGVVLLGQFVVRRFFKS
# partner: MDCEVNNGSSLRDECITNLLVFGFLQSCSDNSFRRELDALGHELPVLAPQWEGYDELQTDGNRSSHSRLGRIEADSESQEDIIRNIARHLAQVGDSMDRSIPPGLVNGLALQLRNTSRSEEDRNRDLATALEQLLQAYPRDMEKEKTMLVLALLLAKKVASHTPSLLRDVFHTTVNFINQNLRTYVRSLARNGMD
# Variants of: B1
# Details: with bid_human BID
row,effect of a mutation on the interaction,Variant
1,increasing interaction,Y110E
